Measured values taken from article PMC4964982 (2016).
Bridge positions count the residues as written; N and C are the ends. Square brackets hold non-standard residues; d marks the D form. Ends that are not written are not given here. S5 = C=CCCC[C@](C)(N)C(=O)O

Columns and labels:
Assay in all cases: TR-FRET competition with SRC3 fragment
[1] = molecular target: T1, PFE-SP2 687-697 (Homo sapiens, UniProt Q15596, staple 3-7; also: R to Q substitution, place not given here)
T1 chain: HK[S5]LHR[S5]LQDS

[2] = molecular target: T2, SRC2-WT 687-697 (Homo sapiens, UniProt Q15596)
T2 chain: HKILHRLLQDS

[3] = molecular target: T3, SRC2-SP4 687-697 (Homo sapiens, UniProt Q15596, staple 3-7)
T3 chain: HK[S5]LHR[S5]LQDS

- IC50 [1]: 760 nM
- IC50 [2]: 1100 nM
- IC50 [3]: 390 nM
B1: ERα LBD (protein)
chain: NSLALSLTADQMVSALLDAEPPILYSEYDPTRPFSEASMMGLLTNLADRELVHMINWAKRVPGFVDLTLHDQVHLLECAWLEILMIGLVWRSMEHPGKLLFAPNLLLDRNQGKCVEGMVEIFDMLLATSSRFRMMNLQGEEFVCLKSIILLNSGVYTFLSSTLKSLEEKDHIHRVLDKITDTLIHLMAKAGLTLQQQHQRLAQLLLILSHIRHMSNKGMEHLYSMKCKNVVPLYDLLLEMLDAHRLHAPTS
